Assays:
[1] = target: AtBAG5-IQR (AtBAG5-long with Ile57, Gln58 and Arg62 substituted with alanine) (Arabidopsis thaliana, UniProt O65373 49-153, Ile57 to alanine | Gln58 to alanine | Arg62 to alanine); assay: ITC
[2] = target: AtBAG5-CaM (with Ca2+); assay: ITC; with Ca2+ (AtBAG5/holo-CaM complex)
[3] = target: AtBAG5/holo-CaM (Arabidopsis thaliana (AtBAG5); Homo …); assay: ITC; with Ca2+; AtBAG5 pre-bound to holo-CaM

Row | Kd [1] [nM] | Kd [2] [µM] | Kd [3] [µM] | Binder
1 | 480 | 53.3 |  | ATPase domain of human Hsp70 (called Hsc70 in the results) (domain or fragment) not shown
2 |  |  | 53.3 | ATPase domain of human Hsp70 (called Hsc70 in the results) (domain or fragment, CaM Ca2+-saturated (holo, 4 Ca2+; 10 mM CaCl2). AtBAG5-long limits are printed. CaM is full length with the initiator Met removed by convention. CaM species is not printed: Met144 in mature numbering fits vertebrate CaM rather than plant CaM (Val144).) not shown

— publication PMC4990970 (2016)
